Data set [1] addresses T1, ParB-eGFP (Spo0J) (Bacillus subtilis, UniProt P26497 1-282).
T1 sequence: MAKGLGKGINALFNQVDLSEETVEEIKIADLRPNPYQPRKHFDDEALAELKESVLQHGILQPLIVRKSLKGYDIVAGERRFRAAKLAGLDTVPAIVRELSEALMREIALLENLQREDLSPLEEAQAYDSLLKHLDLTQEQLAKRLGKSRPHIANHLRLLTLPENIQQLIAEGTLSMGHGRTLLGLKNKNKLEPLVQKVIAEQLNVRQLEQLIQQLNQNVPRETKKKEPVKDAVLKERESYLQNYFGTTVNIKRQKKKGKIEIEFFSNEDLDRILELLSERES
As to the kind of experiment: single-molecule colocalization with lambda DNA.

Data set [2] concerns the target T1, ParB-eGFP (Spo0J). As to the kind of experiment: single-molecule colocalization with lambda DNA. This is another data set of the same source.

Where two headings read alike, the source gives them in different places.

B1: ns-oligo-Cy5 (58 bp) (dsDNA)
DNA 1: CGAAGGCTACGTCCAGGAGCGCACCATCTTCTTCAAGGACGACGGCAACTACAAGACC
DNA 2: GGTCTTGTAGTTGCCGTCGTCCTTGAAGAAGATGGTGCGCTCCTGGACGTAGCCTTCG
B1: the binding signal with ParB-eGFP (Spo0J) [1] is ~2 fold shorter lifetime than parS-oligo; with ParB-eGFP (Spo0J) [2] it was ~3 fold fewer multimer-oligo complexes than parS-oligo.

Values taken from publication PMC9458438.
